The record followed here is patent US20250339531A1, “DUX4 POLYPEPTIDES AND NUCLEIC ACIDS FOR TREATING INFLAMMATORY AND AUTOIMMUNE CONDITIONS” (Fred Hutchinson Cancer Center, priority 2021, published 2025).

This assay concerns proteins that co-immunoprecipitated with DUX4-CTD constructs expressed in MB135 myoblasts. Nature of the assay: LC-MS of proteins co-immunoprecipitated with DUX4-CTD (Table 1) and western validation. In kind it is binding, human. Also noted: key to 4. mL1dL2 + Dox + IFNG / 4. + IFNG mix / 4. longCTD + Dox + IFNG / 3. + IFNg + Dox longCTD / 3. + Dox longCTD / 3. + IFNG longCTD: peptide-spectrum matches (PSMs) per protein. The settings on record: kind of count not given; for 4. + IFNG mix: LC-MS value per protein co-immunoprecipitated from MB135 myoblasts, + IFNG mix sample (no Dox); for 4. mL1dL2 + Dox + IFNG: LC-MS value per protein co-immunoprecipitated with DUX4-CTD construct mL1dL2 in MB135 myoblasts. A digest of the protocol:
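Two independent experiments compared uninduced, doxycycline and doxycycline+IFNG MB135iDUX4-CTD (plus MB135iDUX4mL1dL2) myoblasts. Anti-FLAG pulldowns (3 h, 4 °C) were eluted in LDS buffer for western validation or with FLAG peptide for trypsin digestion and Orbitrap LC-MS; hits needed ≥2 PSMs in both experiments, ranked by total PSMs.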

B1: IGKV2-40 (protein, UniProt A0A087WW87 20-121, looked up)
Immunoglobulin kappa variable …: EDIVMTQTPLSLPVTPGEPASISCRSSQSLLDSDDGNTYLDWYLQKPGQSPQLLIYTLSYRASGVPDRFSGSGSGTDFTLKISRVEAEDVGVYYCMQRIEFP
For B1, the “4. + IFNG mix” value is recorded as 5 and the “4. mL1dL2 + Dox + IFNG” value is listed as 1.

B2: ATP5F1A (protein)
chain: QKTGTAEMSSILEERILGADTSVDLEETGRVLSIGDGIARVHGLRNVQAEEMVEFSSGLKGMSLNLEPDNVGVVVFGNDKLIKEGDIVKRTGAIVDVPVGEELLGRVVDALGNAIDGKGPIGSKTRRRVGLKAPGIIPRISVREPMQTGIKAVDSLVPIGRGQRELIIGDRQTGKTSIAIDTIINQKRFNDGSDEKKKLYCIYVAIGQKRSTVAQLVKRLTDADAMKYTIVVSATASDAAPLQYLAPYSGCSMGEYFRDNGKHALIIYDDLSKQAVAYRQMSLLLRRPPGREAYPGDVFYLHSRLLERAAKMNDAFGGGSLTALPVIETQAGDVSAYIPTNVISITDGQIFLETELFYKGIRPAINVGLSVSRVGSAAQTRAMKQVAGTMKLELAQYREVAAFAQFGSDLDAATQQLLSRGVRLTELLKQGQYSPMAIEEQVAVIYAGVRGYLDKLEPSKITKFENAFLSHVVSQHQALLGTIRADGKISEQSDAKLKEIVTNFLAGFEA
With B2, the “4. + IFNG mix” value is reported as 6 and the “4. mL1dL2 + Dox + IFNG” value is recorded as 4.

B3: JSRP1 (protein)
chain: MSMTTRAWEELDGGLGSCQALEDHSALAETQEDRASATPRLADSGSVPHDSQVAEGPSVDTRPKKMEKEPAARGTPGTGKERLKAGASPRSVPARKKAQTAPPLQPPPPPPALSEELPWGDLSLNKCLVLASLVALLGSAFQLCRDAVPGEAALQARVPEPWVPPSSAPREPSSPLPKFEAQAPPSAPPAPRAEAEVRPKIPGSREAAENDEEEPGEATGEAVREDRVTLADRGPKERPRREGKPRKEKPRKEERPKKERPRKEERPRAAREPREALPQRWESREGGHRPWARDSRDAEPRKKQAWVSPRRPDEEQRPGSRQKLRAGKGRD
Turning to B3, the “4. mL1dL2 + Dox + IFNG” value was 1.

B4: PLOD1 (protein)
chain: KGDAKPEDNLLVLTVATKETEGFRRFKRSAQFFNYKIQALGLGEDWNVEKGTSAGGGQKVRLLKKALEKHADKEDLVILFADSYDVLFASGPRELLKKFRQARSQVVFSAEELIYPDRRLETKYPVVSDGKRFLGSGGFIGYAPNLSKLVAEWEGQDSDSDQLFYTKIFLDPEKREQINITLDHRCRIFQNLDGALDEVVLKFEMGHVRARNLAYDTLPVLIHGNGPTKLQLNYLGNYIPRFWTFETGCTVCDEGLRSLKGIGDEALPTVLVGVFIEQPTPFVSLFFQRLLRLHYPQKHMRLFIHNHEQHHKAQVEEFLAQHGSEYQSVKLVGPEVRMANADARNMGADLCRQDRSCTYYFSVDADVALTEPNSLRLLIQQNKNVIAPLMTRHGRLWSNFWGALSADGYYARSEDYVDIVQGRRVGVWNVPYISNIYLIKGSALRGELQSSDLFHHSKLDPDMAFCANIRQQDVFMFLTNRHTLGHLLSLDSYRTTHLHNDLWEVFSNPEDWKEKYIHQNYTKALAGKLVETPCPDVYWFPIFTEVACDELVEEMEHFGQWSLGNNKDNRIQGGYENVPTIDIHMNQIGFEREWHKFLLEYIAPMTEKLYPGYYTRAQFDLAFVVRYKPDEQPSLMPHHDASTFTINIALNRVGVDYEGGGCRFLRYNCSIRAPRKGWTLMHPGRLTHYHEGLPTTRGTRYIAVSFVDP
With B4, the “4. mL1dL2 + Dox + IFNG” value is 2.

B5: SLC3A2 (protein)
chain: SQDTEVDMKEVELNELEPEKQPMNAASGAAMSLAGAEKNGLVKIKVAEDEAEAAAAAKFTGLSKEELLKVAGSPGWVRTRWALLLLFWLGWLGMLAGAVVIIVRAPRCRELPAQKWWHTGALYRIGDLQAFQGHGAGNLAGLKGRLDYLSSLKVKGLVLGPIHKNQKDDVAQTDLLQIDPNFGSKEDFDSLLQSAKKKSIRVILDLTPNYRGENSWFSTQVDTVATKVKDALEFWLQAGVDGFQVRDIENLKDASSFLAEWQNITKGFSEDRLLIAGTNSSDLQQILSLLESNKDLLLTSSYLSDSGSTGEHTKSLVTQYLNATGNRWCSWSLSQARLLTSFLPAQLLRLYQLMLFTLPGTPVFSYGDEIGLDAAALPGQPMEAPVMLWDESSFPDIPGAVSANMTVKGQSEDPGSLLSLFRRLSDQRSKERSLLHGDFHAFSAGPGLFSYIRHWDQNERFLVVLNFGDVGLSAGLQASDLPASASLPAKADLLLSTQPGREEGSPLELERLKLEPHEGLLLRFPYAA
As for B5, the “4. + IFNG mix” value was determined as 2 and the “4. mL1dL2 + Dox + IFNG” value is reported as 4.
